From patent US20230055566A1 (DIZAL JIANGSU PHARMACEUTICAL, published 2023) come the findings set out here.

Assay [1] has as its target T1, FGFR4-Fc (human, UniProt P22455 22-369).
T1 construct: Bought from R&D Systems; not shown: human Fc
T1 sequence (looked up): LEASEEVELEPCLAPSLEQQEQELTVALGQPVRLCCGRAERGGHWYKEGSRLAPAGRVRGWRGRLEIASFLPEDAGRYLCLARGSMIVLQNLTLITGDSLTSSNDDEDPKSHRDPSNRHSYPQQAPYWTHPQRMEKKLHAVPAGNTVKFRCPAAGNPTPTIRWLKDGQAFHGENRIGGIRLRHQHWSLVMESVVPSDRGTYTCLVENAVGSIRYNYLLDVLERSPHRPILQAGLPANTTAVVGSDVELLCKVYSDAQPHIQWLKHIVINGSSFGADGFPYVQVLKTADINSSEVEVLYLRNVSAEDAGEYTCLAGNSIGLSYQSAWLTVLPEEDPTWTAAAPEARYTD
In words: ELISA on FGFR family Fc fusion proteins. A general note: ELISA stands for enzyme-linked immunosorbent assay.

Assay [2] addresses T2, FGFR3b-Fc (human, UniProt P22607-2 23-377).
T2 construct: Bought from R&D Systems; the IIIb form is an isoform of it; not shown: human Fc
T2 sequence (looked up): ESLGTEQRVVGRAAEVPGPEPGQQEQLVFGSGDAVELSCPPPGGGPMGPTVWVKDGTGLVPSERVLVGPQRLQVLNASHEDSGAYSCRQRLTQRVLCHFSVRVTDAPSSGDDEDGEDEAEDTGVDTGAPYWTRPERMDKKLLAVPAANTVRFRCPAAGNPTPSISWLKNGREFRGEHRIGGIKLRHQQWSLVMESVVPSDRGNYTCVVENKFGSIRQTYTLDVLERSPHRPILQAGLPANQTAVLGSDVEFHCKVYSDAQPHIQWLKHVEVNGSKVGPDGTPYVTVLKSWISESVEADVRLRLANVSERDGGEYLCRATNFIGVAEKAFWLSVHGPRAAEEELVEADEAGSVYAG
In words: ELISA on FGFR family Fc fusion proteins.

Another assay has as its target T3, cyno FGFR2b-Fc (Cynomolgus monkey).
T3 construct: also called recombinant cyno FGFR2b-Fc; cynomolgus FGFR2b
Nature of the assay: ELISA, plate coated with cyno FGFR2b-Fc, anti-human IgG HRP. The procedure:
(§1) The cross-species binding of Ab 21c to recombinant cyno, rat/mouse, and human FGFR2b-Fc fusion proteins was conducted with ELISA. In brief, 96-well ELISA plate were coated with about 100 μl/well 0.1 μg/ml recombinant human FGFR2b-Fc, recombinant rat/mouse FGFR2b-Fc, or recombinant cyno FGFR2b-Fc protein in PBS overnight. Then the plate was blocked with 2% BSA in PBS with 0.05% Tween20 and incubation with antibody samples for 60 min at room temperature, and then washed twice in 1×TBST (Cell Signaling Technology, #9997) and followed by incubation with anti-human lgG HRP (Horseradish peroxidase) conjugate for 60 min at a room temperature. HRP activity was detected with tetra-methylbenzidine substrate (Cell Signaling Technology, #7004) and the reaction was stopped with stop solution (Cell Signaling Technology, #7002). The plate was read at 450 nm. […] Ab 21c has the highest binding affinity to rat/mouse FGFR2b, followed by human FGFR2b, and then cyno FGFR2b.

In assay [3] the target is T4, recombinant rat/mouse FGFR2b-Fc (rat).
T4 construct: also called rat FGFR2b fused with murine Fc
Nature of the assay: ELISA, plate coated with rat/mouse FGFR2b-Fc, anti-human IgG HRP. As for the experimental part:
as §1

Assay [4] deals with T5, recombinant human FGFR1b-Fc (human, UniProt P11362-19 22-376).
T5 construct: Bought from R&D Systems; also called hFGFR1b-Fc; not shown: human Fc
T5 sequence (looked up): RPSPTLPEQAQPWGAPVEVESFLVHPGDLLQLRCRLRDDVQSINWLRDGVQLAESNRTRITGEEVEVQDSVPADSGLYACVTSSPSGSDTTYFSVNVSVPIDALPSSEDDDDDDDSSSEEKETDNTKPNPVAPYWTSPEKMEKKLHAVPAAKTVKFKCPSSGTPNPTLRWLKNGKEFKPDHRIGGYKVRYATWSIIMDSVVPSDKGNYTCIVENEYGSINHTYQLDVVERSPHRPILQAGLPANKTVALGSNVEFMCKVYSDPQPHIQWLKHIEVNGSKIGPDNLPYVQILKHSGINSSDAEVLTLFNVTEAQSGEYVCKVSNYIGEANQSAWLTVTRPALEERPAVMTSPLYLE
Nature of the assay: SPR (Biacore T200), hFGFR1b-Fc amine-coupled on CM5 chip, antibody as analyte. As for the experimental part:
(§2) The binding of antibodies to human FGFR2b or human FGFR1b antigen was determined by surface plasmon resonance (Biacore). Briefly, CM5 sensor chip (GE Healthcare Life Sciences) was firstly activated by a 4 min injection of 1:1 freshly mixture of 50 mM N-hydroxysuccinamide (NHS): 200 mM […]. Then hFGFR2b-Fc or hFGFR1b-Fc was immobilized to activated CM5 sensor chip using Amine Coupling Kit (GE Healthcare Life Sciences) and 1M ethanolamine as the blocking reagent. About 20-30 response units (RU, 1 RU represents the binding of 1 pg of protein per square mm) of antigen protein were captured.
(§3) The association constant, dissociation constant were calculated with Biacore T200 evaluation software (version 1.0). […] In addition, Ab 21c is distinguished from the antibody FPA144 in terms of FGFR1b binding.

The target of assay [5] is T5, recombinant human FGFR1b-Fc. Nature of the assay: SPR (Biacore), hFGFR1b-Fc immobilized on CM5 chip, antibody injected at 0-200 nM. As for the experimental part: as §2, §3
Background: SPR reads the build-up and loss of mass on a sensor chip optically.

In assay [6] the target is T2, FGFR3b-Fc. Nature of the assay: ELISA, plate coated with HuFGFR3b.
Assay [7] concerns the target T1, FGFR4-Fc. In words: ELISA, plate coated with HuFGFR4.

Residue numbers refer to the chain shown, from its start. Names may count otherwise.

For orientation: EC50 (read off the curve) means the concentration needed to bring the measured effect to its halfway point. The term Kd denotes the equilibrium constant for the complex coming apart. One may read the koff as the first-order rate constant of dissociation. As a reminder, the kon is a measure of how fast the partners come together.

B1: Ab hu21-21 (antibody, V domains shown)
VH: EVQLVQSGAEVKKPGASVKVSCKASGYTFTNYWMHWVRQAPGQGLEWMGAIYPENGDINYNQKFKGRVTLTRDTSISTAYMELSRLRSDDTAVYYCTSRGDYWGQGTTVTVSS
VL: AIQLTQSPSSLSASVGDRVTITCSASSGLSYMSWYQQKPGKAPKLLIYDTSNLASGVPSRFSGSGSGTDFTLTISSLQPEDFATYYCQQWSSYPYTFGQGTKLEIK
notes: Humanized antibody based on Ab 21
Take B1: the binding result in the assay with FGFR4-Fc [1] and with FGFR3b-Fc [2] was “no binding” throughout.

B2: Ab hu21-26 (antibody, human IgG1, V domains shown)
VH: B1 VH with G56R
VL: B1 VL
notes: Humanized antibody with human IgG1; The VH equals that of hu21-21 except for G56R; also called afhu21-26 (afucosylated version)
Take B2: the binding result with FGFR4-Fc [1] and in the assay with FGFR3b-Fc [2] was “no binding” in each case.

B3: Ab 21c (antibody, V domains shown)
VH: EVQLHQSGTVLARPGASVKMSCKTSGYTFTNYWMHWIKQRPGQGLEWIGAIYPENGDINYNQKFKGKAKLTAVTSASTAYMDLSSLTNEDSAVYYCTSRGDYWGQGTTLTVSS
VL: QIVLTQSPAIMSASPGEKVTMTCSASSGLSYMSWYQQKPGSSPRLLIYDTSNLASGVPVRFSGSGSGTSYSLTISRMEAEDAATYYCQQWSSYPYTFGGGTKLEIK
notes: Chimeric antibody: mouse VH and VL fused to human heavy and light chain constant regions; also called chimeric Ab 21c
As to B3, in the assay with cyno FGFR2b-Fc, the “EC50 (read off the curve)” value is approximately 0.6 nM. Further, in assay [3], the “EC50 (read off the curve)” value is approximately 0.2 nM. Besides, the Kd in assay [4] came out at 3.69 nM. Also, in assay [5], the koff came out at 0.000235 s⁻¹ and the kon stood at 63800 M⁻¹ s⁻¹.

B4: Ab 21 (antibody, V domains shown)
VH: B3 VH
VL: B3 VL
notes: Mouse monoclonal antibody from a hybridoma; also called mouse Ab 21
For B4, the binding result with FGFR3b-Fc [6] and with FGFR4-Fc [7] was “no binding (tested: about 10^-7.3 M (about 5e-8 M))” each time.
